Laboratory results reported in paper PMC9482650, “Quantitative fragmentomics allow affinity mapping of interactomes” (Nature Communications, 2022).

T1: NHERF3_3, Q5T2W1
T1 sequence (Q5T2W1 238-333, limits assumed, looked up): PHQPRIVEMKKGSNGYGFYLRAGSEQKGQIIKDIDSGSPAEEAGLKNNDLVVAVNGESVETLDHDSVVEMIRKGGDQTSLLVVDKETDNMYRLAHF

T2: SNTG2, Q9NY99
T2 sequence (Q9NY99 68-166, limits assumed, looked up): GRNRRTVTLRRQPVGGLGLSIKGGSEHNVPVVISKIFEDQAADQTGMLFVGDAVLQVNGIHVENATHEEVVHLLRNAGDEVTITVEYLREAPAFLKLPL

T3: DFNB31_1, Q9P202
T3 sequence (Q9P202 135-233, limits assumed, looked up): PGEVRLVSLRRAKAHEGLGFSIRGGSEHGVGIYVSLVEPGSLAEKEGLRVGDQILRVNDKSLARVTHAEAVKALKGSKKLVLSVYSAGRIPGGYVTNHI

T4: DLG3_2, Q92796
T4 sequence (Q92796 221-321, limits assumed, looked up): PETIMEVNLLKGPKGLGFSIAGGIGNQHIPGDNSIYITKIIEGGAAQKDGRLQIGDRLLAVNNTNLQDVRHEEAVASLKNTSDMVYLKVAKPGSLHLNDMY

T5: SIPA1L2, Q9P2F8
T5 sequence (Q9P2F8 945-1036, limits assumed, looked up): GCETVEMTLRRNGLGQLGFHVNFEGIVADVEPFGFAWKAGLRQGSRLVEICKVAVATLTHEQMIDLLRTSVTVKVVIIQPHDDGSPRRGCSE

T6: RAPGEF6, Q8TEU7
T6 sequence (Q8TEU7 525-625, limits assumed, looked up): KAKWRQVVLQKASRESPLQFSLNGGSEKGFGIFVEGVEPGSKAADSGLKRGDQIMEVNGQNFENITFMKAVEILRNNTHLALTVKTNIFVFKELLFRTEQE

T7: DLG3_1, Q92796
T7 sequence (Q92796 125-227, limits assumed, looked up): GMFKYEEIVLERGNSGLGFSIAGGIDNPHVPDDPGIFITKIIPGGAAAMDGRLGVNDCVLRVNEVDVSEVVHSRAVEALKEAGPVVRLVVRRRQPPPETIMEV

T8: MPDZ_12, O75970
T8 sequence (O75970 1857-1958, limits assumed, looked up): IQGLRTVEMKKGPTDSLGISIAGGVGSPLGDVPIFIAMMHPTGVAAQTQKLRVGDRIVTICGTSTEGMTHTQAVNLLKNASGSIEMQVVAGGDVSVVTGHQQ

T9: LIN7B, Q9HAP6
T9 sequence (Q9HAP6 88-185, limits assumed, looked up): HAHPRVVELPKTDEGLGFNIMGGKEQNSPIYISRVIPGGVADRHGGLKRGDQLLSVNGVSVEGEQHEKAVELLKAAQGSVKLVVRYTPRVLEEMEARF

T10: MPDZ_5, O75970
T10 sequence (O75970 695-796, limits assumed, looked up): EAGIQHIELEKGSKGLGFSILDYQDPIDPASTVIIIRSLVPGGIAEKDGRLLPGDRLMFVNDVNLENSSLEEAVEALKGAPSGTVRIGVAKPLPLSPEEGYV

T11: PDZRN3_1, Q9UPQ7
T11 sequence (Q9UPQ7 244-349, limits assumed, looked up): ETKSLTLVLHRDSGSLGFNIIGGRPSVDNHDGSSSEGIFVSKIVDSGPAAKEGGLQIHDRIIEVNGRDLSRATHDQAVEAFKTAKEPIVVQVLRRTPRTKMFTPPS

T12: MPDZ_10, O75970
T12 sequence (O75970 1624-1722, limits assumed, looked up): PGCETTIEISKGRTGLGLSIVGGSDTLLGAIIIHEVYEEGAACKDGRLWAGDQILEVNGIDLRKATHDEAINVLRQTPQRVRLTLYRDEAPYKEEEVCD

B1: ADGRA3, Q8IWK6 (peptide)
chain: TGLWKHETTV
B2: SDC2, P34741 (peptide)
chain: QKAPTKEFYA
B3: PRKACA, P17612 (peptide)
chain: EKCGKEFSEF

The binders below were run against SNX27, Q96L92 (assay: holdup assay). Details: plain residues with an end cap or a label only (N-terminal biotin on a linker: ado-ado).
Parameters: key: below the threshold = too weak to quantify, mostly under pKd 3.1 to 4

| Binder | pKd |
| --- | --- |
| B1 | 5.41 |
| B2 | below the threshold |
| B3 | below the threshold |

What follows are binders tested against T1, NHERF3_3, Q5T2W1 (assay: holdup assay). Details: plain residues with an end cap or a label only (N-terminal biotin on a linker: ado-ado).
Parameters: key: below the threshold = too weak to quantify, mostly under pKd 3.1 to 4

| Binder | pKd |
| --- | --- |
| B1 | below the threshold |
| B2 | below the threshold |
| B3 | below the threshold |

The binders below were run against NHERF4_4, Q86UT5 (assay: holdup assay). Details: plain residues with an end cap or a label only (N-terminal biotin on a linker: ado-ado).
Parameters: key: below the threshold = too weak to quantify, mostly under pKd 3.1 to 4

Sequence of NHERF4_4, Q86UT5 (Q86UT5 464-550): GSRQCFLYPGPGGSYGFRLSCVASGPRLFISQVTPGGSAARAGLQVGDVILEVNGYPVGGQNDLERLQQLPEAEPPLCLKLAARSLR

| Binder | pKd |
| --- | --- |
| B1 | 3.87 |
| B2 | below the threshold |
| B3 | below the threshold |

What follows are binders tested against T2, SNTG2, Q9NY99 (assay: holdup assay). Details: plain residues with an end cap or a label only (N-terminal biotin on a linker: ado-ado).
Parameters: key: below the threshold = too weak to quantify, mostly under pKd 3.1 to 4

| Binder | pKd |
| --- | --- |
| B1 | 4.25 |
| B2 | below the threshold |
| B3 | below the threshold |

These binders were tested against NHERF4_2, Q86UT5 (assay: holdup assay). Details: plain residues with an end cap or a label only (N-terminal biotin on a linker: ado-ado).
Parameters: key: below the threshold = too weak to quantify, mostly under pKd 3.1 to 4

Sequence of NHERF4_2, Q86UT5 (Q86UT5 220-308): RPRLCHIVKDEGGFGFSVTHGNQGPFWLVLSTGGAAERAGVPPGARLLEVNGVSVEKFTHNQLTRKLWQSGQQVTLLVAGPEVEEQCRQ

| Binder | pKd |
| --- | --- |
| B1 | below the threshold |
| B2 | below the threshold |
| B3 | below the threshold |

Each binder was assayed against DLG1_3, Q12959 (assay: holdup assay). Details: plain residues with an end cap or a label only (N-terminal biotin on a linker: ado-ado).
Parameters: key: below the threshold = too weak to quantify, mostly under pKd 3.1 to 4

Sequence of DLG1_3, Q12959 (Q12959 457-571): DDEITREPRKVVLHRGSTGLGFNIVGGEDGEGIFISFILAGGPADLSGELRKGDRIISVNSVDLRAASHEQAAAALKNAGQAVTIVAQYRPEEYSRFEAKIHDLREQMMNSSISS

| Binder | pKd |
| --- | --- |
| B1 | 4.78 |
| B2 | below the threshold |
| B3 | below the threshold |

Each binder was assayed against Inadl_3, Q8NI35 (assay: holdup assay). Details: plain residues with an end cap or a label only (N-terminal biotin on a linker: ado-ado).
Parameters: key: below the threshold = too weak to quantify, mostly under pKd 3.1 to 4

Sequence of Inadl_3, Q8NI35 (Q8NI35 359-469): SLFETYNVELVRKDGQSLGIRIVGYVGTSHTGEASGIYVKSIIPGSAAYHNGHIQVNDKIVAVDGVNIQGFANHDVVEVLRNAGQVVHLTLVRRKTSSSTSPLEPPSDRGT

| Binder | pKd |
| --- | --- |
| B1 | 3.86 |
| B2 | below the threshold |
| B3 | below the threshold |

What follows are binders tested against AHNAK1, Q09666 (assay: holdup assay). Details: plain residues with an end cap or a label only (N-terminal biotin on a linker: ado-ado).
Parameters: key: below the threshold = too weak to quantify, mostly under pKd 3.1 to 4

Sequence of AHNAK1, Q09666 (Q09666 4-100): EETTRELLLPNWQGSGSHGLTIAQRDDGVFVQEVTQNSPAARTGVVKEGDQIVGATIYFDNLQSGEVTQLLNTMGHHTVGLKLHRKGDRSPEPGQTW

| Binder | pKd |
| --- | --- |
| B1 | below the threshold |
| B2 | below the threshold |
| B3 | below the threshold |

These binders were tested against T3, DFNB31_1, Q9P202 (assay: holdup assay). Details: plain residues with an end cap or a label only (N-terminal biotin on a linker: ado-ado).
Parameters: key: below the threshold = too weak to quantify, mostly under pKd 3.1 to 4

| Binder | pKd |
| --- | --- |
| B1 | 3.9 |
| B2 | below the threshold |
| B3 | below the threshold |

The binders below were run against T4, DLG3_2, Q92796 (assay: holdup assay). Details: plain residues with an end cap or a label only (N-terminal biotin on a linker: ado-ado).
Parameters: key: below the threshold = too weak to quantify, mostly under pKd 3.1 to 4

| Binder | pKd |
| --- | --- |
| B1 | 5.25 |
| B2 | 4.18 |
| B3 | 4.11 |

The binders below were run against T5, SIPA1L2, Q9P2F8 (assay: holdup assay). Details: plain residues with an end cap or a label only (N-terminal biotin on a linker: ado-ado).
Parameters: key: below the threshold = too weak to quantify, mostly under pKd 3.1 to 4

| Binder | pKd |
| --- | --- |
| B1 | below the threshold |
| B2 | below the threshold |
| B3 | below the threshold |

What follows are binders tested against T6, RAPGEF6, Q8TEU7 (assay: holdup assay). Details: plain residues with an end cap or a label only (N-terminal biotin on a linker: ado-ado).
Parameters: key: below the threshold = too weak to quantify, mostly under pKd 3.1 to 4

| Binder | pKd |
| --- | --- |
| B1 | below the threshold |
| B2 | 3.54 |
| B3 | below the threshold |

Each binder was assayed against LDB3, O75112 (assay: holdup assay). Details: plain residues with an end cap or a label only (N-terminal biotin on a linker: ado-ado).
Parameters: key: below the threshold = too weak to quantify, mostly under pKd 3.1 to 4

Sequence of LDB3, O75112 (O75112 1-94): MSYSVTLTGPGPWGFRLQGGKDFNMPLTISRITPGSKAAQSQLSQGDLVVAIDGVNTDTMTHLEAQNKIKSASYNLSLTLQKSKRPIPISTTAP

| Binder | pKd |
| --- | --- |
| B1 | below the threshold |
| B2 | below the threshold |
| B3 | below the threshold |

Each binder was assayed against T7, DLG3_1, Q92796 (assay: holdup assay). Details: plain residues with an end cap or a label only (N-terminal biotin on a linker: ado-ado).
Parameters: key: below the threshold = too weak to quantify, mostly under pKd 3.1 to 4

| Binder | pKd |
| --- | --- |
| B1 | 4.69 |
| B2 | below the threshold |
| B3 | below the threshold |

The binders below were run against T8, MPDZ_12, O75970 (assay: holdup assay). Details: plain residues with an end cap or a label only (N-terminal biotin on a linker: ado-ado).
Parameters: key: below the threshold = too weak to quantify, mostly under pKd 3.1 to 4

| Binder | pKd |
| --- | --- |
| B1 | below the threshold |
| B2 | 3.5 |
| B3 | below the threshold |

What follows are binders tested against T9, LIN7B, Q9HAP6 (assay: holdup assay). Details: plain residues with an end cap or a label only (N-terminal biotin on a linker: ado-ado).
Parameters: key: below the threshold = too weak to quantify, mostly under pKd 3.1 to 4

| Binder | pKd |
| --- | --- |
| B1 | 4.04 |
| B2 | 3.53 |
| B3 | 3.92 |

What follows are binders tested against FRMPD2_3, Q68DX3 (assay: holdup assay). Details: plain residues with an end cap or a label only (N-terminal biotin on a linker: ado-ado).
Parameters: key: below the threshold = too weak to quantify, mostly under pKd 3.1 to 4

Sequence of FRMPD2_3, Q68DX3 (Q68DX3 1073-1166): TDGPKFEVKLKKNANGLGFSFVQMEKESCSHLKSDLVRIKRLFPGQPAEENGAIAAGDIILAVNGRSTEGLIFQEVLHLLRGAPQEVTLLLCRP

| Binder | pKd |
| --- | --- |
| B1 | below the threshold |
| B2 | 3.67 |
| B3 | below the threshold |

What follows are binders tested against T10, MPDZ_5, O75970 (assay: holdup assay). Details: plain residues with an end cap or a label only (N-terminal biotin on a linker: ado-ado).
Parameters: key: below the threshold = too weak to quantify, mostly under pKd 3.1 to 4

| Binder | pKd |
| --- | --- |
| B1 | below the threshold |
| B2 | 3.48 |
| B3 | below the threshold |

Each binder was assayed against GRID2IP_1, A4D2P6 (assay: holdup assay). Details: plain residues with an end cap or a label only (N-terminal biotin on a linker: ado-ado).
Parameters: key: below the threshold = too weak to quantify, mostly under pKd 3.1 to 4

Sequence of GRID2IP_1, A4D2P6 (A4D2P6 1-87): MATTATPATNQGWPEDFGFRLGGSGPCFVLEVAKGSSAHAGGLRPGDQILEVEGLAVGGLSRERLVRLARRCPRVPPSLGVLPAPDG

| Binder | pKd |
| --- | --- |
| B1 | below the threshold |
| B2 | below the threshold |
| B3 | below the threshold |

The binders below were run against TJP1_3, Q07157 (assay: holdup assay). Details: plain residues with an end cap or a label only (N-terminal biotin on a linker: ado-ado).
Parameters: key: below the threshold = too weak to quantify, mostly under pKd 3.1 to 4

Sequence of TJP1_3, Q07157 (Q07157 416-512): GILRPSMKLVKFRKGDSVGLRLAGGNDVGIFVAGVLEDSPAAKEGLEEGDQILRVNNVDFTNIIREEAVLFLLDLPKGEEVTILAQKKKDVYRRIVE

| Binder | pKd |
| --- | --- |
| B1 | below the threshold |
| B2 | below the threshold |
| B3 | below the threshold |

Each binder was assayed against T11, PDZRN3_1, Q9UPQ7 (assay: holdup assay). Details: plain residues with an end cap or a label only (N-terminal biotin on a linker: ado-ado).
Parameters: key: below the threshold = too weak to quantify, mostly under pKd 3.1 to 4

| Binder | pKd |
| --- | --- |
| B1 | 4.25 |
| B2 | below the threshold |
| B3 | below the threshold |

These binders were tested against SCRIB_1, Q14160 (assay: holdup assay). Details: plain residues with an end cap or a label only (N-terminal biotin on a linker: ado-ado).
Parameters: key: below the threshold = too weak to quantify, mostly under pKd 3.1 to 4

Sequence of SCRIB_1, Q14160 (Q14160 718-814): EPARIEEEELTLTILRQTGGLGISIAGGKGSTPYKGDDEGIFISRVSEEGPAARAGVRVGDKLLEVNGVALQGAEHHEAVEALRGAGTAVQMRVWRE

| Binder | pKd |
| --- | --- |
| B1 | 4.74 |
| B2 | below the threshold |
| B3 | below the threshold |

These binders were tested against Inadl_5, Q8NI35 (assay: holdup assay). Details: plain residues with an end cap or a label only (N-terminal biotin on a linker: ado-ado).
Parameters: key: below the threshold = too weak to quantify, mostly under pKd 3.1 to 4

Sequence of Inadl_5, Q8NI35 (Q8NI35 673-780): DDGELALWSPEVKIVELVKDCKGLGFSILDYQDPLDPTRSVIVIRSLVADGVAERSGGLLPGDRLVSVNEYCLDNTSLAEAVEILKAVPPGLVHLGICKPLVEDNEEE

| Binder | pKd |
| --- | --- |
| B1 | below the threshold |
| B2 | below the threshold |
| B3 | below the threshold |

Each binder was assayed against T12, MPDZ_10, O75970 (assay: holdup assay). Details: plain residues with an end cap or a label only (N-terminal biotin on a linker: ado-ado).
Parameters: key: below the threshold = too weak to quantify, mostly under pKd 3.1 to 4

| Binder | pKd |
| --- | --- |
| B1 | below the threshold |
| B2 | below the threshold |
| B3 | below the threshold |
